# Measurements as given in US20260001928A1 (CORTERIA PHARMACEUTICALS, priority 2022, published 2026).
# *1 amine or outer side, *2 acyl side, *3 side chain or, on linkers, in order; H or OH if unused. Where no end group is shown, it is not given here. Side-chain parts run from the residue outwards. [ ]: non-standard residue; d: D form. The star is where a group is joined. C18 diacid = O=C(O)CCCCCCCCCCCCCCCCC(=O)*; C16 diacid = O=C(O)CCCCCCCCCCCCCCC(=O)*; γGlu = O=C(O)[C@H](CCC(=O)[*:2])N[*:1]; NMeI = CC[C@H](C)[C@H](NC)C(=O)O; Pentanoyl = CCCCC(=O)*; AEEA = NCCOCCOCC(=O)O; Aib = CC(C)(N)C(=O)O; Butyryl = CCCC(=O)*
# Experiments:
# [1] = target: T1, CRF1R receptor (UniProt P34998 24-415, limits assumed); test: cell-based or functional assay
# T1 sequence (looked up): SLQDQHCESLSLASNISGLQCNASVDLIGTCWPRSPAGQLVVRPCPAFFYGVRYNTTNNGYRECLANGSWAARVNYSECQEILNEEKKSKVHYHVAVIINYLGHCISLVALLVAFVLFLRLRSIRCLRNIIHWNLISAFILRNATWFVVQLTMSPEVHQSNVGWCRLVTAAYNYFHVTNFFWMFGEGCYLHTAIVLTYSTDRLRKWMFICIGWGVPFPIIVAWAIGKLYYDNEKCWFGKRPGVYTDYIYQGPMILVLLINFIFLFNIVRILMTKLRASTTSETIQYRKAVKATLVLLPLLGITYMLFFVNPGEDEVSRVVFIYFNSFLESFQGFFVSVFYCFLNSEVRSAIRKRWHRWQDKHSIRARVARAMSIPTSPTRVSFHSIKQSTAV
# [2] = target: human corticotropin-releasing factor 2a (CRF2a receptor) (human), Q13324; test: cell-based or functional assay
# human corticotropin-releasing factor 2a (CRF2a receptor) (human), Q13324, sequence (Q13324 20-411): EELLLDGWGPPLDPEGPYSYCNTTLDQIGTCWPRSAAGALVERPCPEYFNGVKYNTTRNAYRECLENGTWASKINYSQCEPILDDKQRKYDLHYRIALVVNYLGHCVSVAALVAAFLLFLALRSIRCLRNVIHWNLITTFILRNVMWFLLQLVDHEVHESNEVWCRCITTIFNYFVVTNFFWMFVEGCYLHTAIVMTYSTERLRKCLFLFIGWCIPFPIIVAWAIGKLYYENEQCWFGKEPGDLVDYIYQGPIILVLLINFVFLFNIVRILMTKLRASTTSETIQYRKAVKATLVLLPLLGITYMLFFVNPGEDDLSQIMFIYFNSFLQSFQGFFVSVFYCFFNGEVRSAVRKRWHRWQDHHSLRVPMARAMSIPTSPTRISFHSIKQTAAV
Binder,Emax (% I) [1] [%],EC50 [nM] (cAMP) [2],EC50 [1] [nM]
[NMeI]VLSLD[dV]PIKLK([AEEA-AEEA-γGlu-C18 diacid])KILLEQEKQK[Aib]QREQAETN[Aib]QILAQV-NH2 (N-terminus assumed; SMILES CC[C@H](C)[C@H](NC)C(=O)N[C@H](C(=O)N[C@@H](CC(C)C)C(=O)N[C@@H](CO)C(=O)N[C@@H](CC(C)C)C(=O)N[C@@H](CC(=O)O)C(=O)N[C@@H](C(=O)N1CCC[C@H]1C(=O)N[C@H](C(=O)N[C@@H](CCCCN)C(=O)N[C@@H](CC(C)C)C(=O)N[C@@H](CCCCNC(=O)COCCOCCNC(=O)COCCOCCNC(=O)CC[C@H](NC(=O)CCCCCCCCCCCCCCCCC(=O)O)C(=O)O)C(=O)N[C@@H](CCCCN)C(=O)N[C@H](C(=O)N[C@@H](CC(C)C)C(=O)N[C@@H](CC(C)C)C(=O)N[C@@H](CCC(=O)O)C(=O)N[C@@H](CCC(N)=O)C(=O)N[C@@H](CCC(=O)O)C(=O)N[C@@H](CCCCN)C(=O)N[C@@H](CCC(N)=O)C(=O)N[C@@H](CCCCN)C(=O)NC(C)(C)C(=O)N[C@@H](CCC(N)=O)C(=O)N[C@@H](CCCNC(=N)N)C(=O)N[C@@H](CCC(=O)O)C(=O)N[C@@H](CCC(N)=O)C(=O)N[C@@H](C)C(=O)N[C@@H](CCC(=O)O)C(=O)N[C@H](C(=O)N[C@@H](CC(N)=O)C(=O)NC(C)(C)C(=O)N[C@@H](CCC(N)=O)C(=O)N[C@H](C(=O)N[C@@H](CC(C)C)C(=O)N[C@@H](C)C(=O)N[C@@H](CCC(N)=O)C(=O)N[C@H](C(N)=O)C(C)C)[C@@H](C)CC)[C@@H](C)O)[C@@H](C)CC)[C@@H](C)CC)C(C)C)C(C)C) [SEQ ID NO 200],2,0.71,–
Butyryl-VLSLD[dV]PIKLK([γGlu-C16 diacid])QILLKQERQKKQREQAEKNKQILEQV-NH2 (SMILES CCCC(=O)N[C@H](C(=O)N[C@@H](CC(C)C)C(=O)N[C@@H](CO)C(=O)N[C@@H](CC(C)C)C(=O)N[C@@H](CC(=O)O)C(=O)N[C@@H](C(=O)N1CCC[C@H]1C(=O)N[C@H](C(=O)N[C@@H](CCCCN)C(=O)N[C@@H](CC(C)C)C(=O)N[C@@H](CCCCNC(=O)CC[C@H](NC(=O)CCCCCCCCCCCCCCC(=O)O)C(=O)O)C(=O)N[C@@H](CCC(N)=O)C(=O)N[C@H](C(=O)N[C@@H](CC(C)C)C(=O)N[C@@H](CC(C)C)C(=O)N[C@@H](CCCCN)C(=O)N[C@@H](CCC(N)=O)C(=O)N[C@@H](CCC(=O)O)C(=O)N[C@@H](CCCNC(=N)N)C(=O)N[C@@H](CCC(N)=O)C(=O)N[C@@H](CCCCN)C(=O)N[C@@H](CCCCN)C(=O)N[C@@H](CCC(N)=O)C(=O)N[C@@H](CCCNC(=N)N)C(=O)N[C@@H](CCC(=O)O)C(=O)N[C@@H](CCC(N)=O)C(=O)N[C@@H](C)C(=O)N[C@@H](CCC(=O)O)C(=O)N[C@@H](CCCCN)C(=O)N[C@@H](CC(N)=O)C(=O)N[C@@H](CCCCN)C(=O)N[C@@H](CCC(N)=O)C(=O)N[C@H](C(=O)N[C@@H](CC(C)C)C(=O)N[C@@H](CCC(=O)O)C(=O)N[C@@H](CCC(N)=O)C(=O)N[C@H](C(N)=O)C(C)C)[C@@H](C)CC)[C@@H](C)CC)[C@@H](C)CC)C(C)C)C(C)C) [SEQ ID NO 7],59,0.06,101
Ac-IVLSLD[dV]PIKLK([AEEA-AEEA-γGlu-γGlu-C18 diacid])KILLEQEKQKKQREQAETN[Aib]QILAQV-NH2 (SMILES CC[C@H](C)[C@H](NC(C)=O)C(=O)N[C@H](C(=O)N[C@@H](CC(C)C)C(=O)N[C@@H](CO)C(=O)N[C@@H](CC(C)C)C(=O)N[C@@H](CC(=O)O)C(=O)N[C@@H](C(=O)N1CCC[C@H]1C(=O)N[C@H](C(=O)N[C@@H](CCCCN)C(=O)N[C@@H](CC(C)C)C(=O)N[C@@H](CCCCNC(=O)COCCOCCNC(=O)COCCOCCNC(=O)CC[C@H](NC(=O)CC[C@H](NC(=O)CCCCCCCCCCCCCCCCC(=O)O)C(=O)O)C(=O)O)C(=O)N[C@@H](CCCCN)C(=O)N[C@H](C(=O)N[C@@H](CC(C)C)C(=O)N[C@@H](CC(C)C)C(=O)N[C@@H](CCC(=O)O)C(=O)N[C@@H](CCC(N)=O)C(=O)N[C@@H](CCC(=O)O)C(=O)N[C@@H](CCCCN)C(=O)N[C@@H](CCC(N)=O)C(=O)N[C@@H](CCCCN)C(=O)N[C@@H](CCCCN)C(=O)N[C@@H](CCC(N)=O)C(=O)N[C@@H](CCCNC(=N)N)C(=O)N[C@@H](CCC(=O)O)C(=O)N[C@@H](CCC(N)=O)C(=O)N[C@@H](C)C(=O)N[C@@H](CCC(=O)O)C(=O)N[C@H](C(=O)N[C@@H](CC(N)=O)C(=O)NC(C)(C)C(=O)N[C@@H](CCC(N)=O)C(=O)N[C@H](C(=O)N[C@@H](CC(C)C)C(=O)N[C@@H](C)C(=O)N[C@@H](CCC(N)=O)C(=O)N[C@H](C(N)=O)C(C)C)[C@@H](C)CC)[C@@H](C)O)[C@@H](C)CC)[C@@H](C)CC)C(C)C)C(C)C) [SEQ ID NO 204],-2,1.84,–
Pentanoyl-VLSLD[dV]PIKLK([AEEA-AEEA-γGlu-C18 diacid])KILLEQEKQK[Aib]QREQAETN[Aib]QILAQV-NH2 (SMILES CCCCC(=O)N[C@H](C(=O)N[C@@H](CC(C)C)C(=O)N[C@@H](CO)C(=O)N[C@@H](CC(C)C)C(=O)N[C@@H](CC(=O)O)C(=O)N[C@@H](C(=O)N1CCC[C@H]1C(=O)N[C@H](C(=O)N[C@@H](CCCCN)C(=O)N[C@@H](CC(C)C)C(=O)N[C@@H](CCCCNC(=O)COCCOCCNC(=O)COCCOCCNC(=O)CC[C@H](NC(=O)CCCCCCCCCCCCCCCCC(=O)O)C(=O)O)C(=O)N[C@@H](CCCCN)C(=O)N[C@H](C(=O)N[C@@H](CC(C)C)C(=O)N[C@@H](CC(C)C)C(=O)N[C@@H](CCC(=O)O)C(=O)N[C@@H](CCC(N)=O)C(=O)N[C@@H](CCC(=O)O)C(=O)N[C@@H](CCCCN)C(=O)N[C@@H](CCC(N)=O)C(=O)N[C@@H](CCCCN)C(=O)NC(C)(C)C(=O)N[C@@H](CCC(N)=O)C(=O)N[C@@H](CCCNC(=N)N)C(=O)N[C@@H](CCC(=O)O)C(=O)N[C@@H](CCC(N)=O)C(=O)N[C@@H](C)C(=O)N[C@@H](CCC(=O)O)C(=O)N[C@H](C(=O)N[C@@H](CC(N)=O)C(=O)NC(C)(C)C(=O)N[C@@H](CCC(N)=O)C(=O)N[C@H](C(=O)N[C@@H](CC(C)C)C(=O)N[C@@H](C)C(=O)N[C@@H](CCC(N)=O)C(=O)N[C@H](C(N)=O)C(C)C)[C@@H](C)CC)[C@@H](C)O)[C@@H](C)CC)[C@@H](C)CC)C(C)C)C(C)C) [SEQ ID NO 202],8,1.73,–
Pentanoyl-VLSLD[dV]PIKLK([AEEA-AEEA-γGlu-C18 diacid])KILLEQEKQKKQREQAETN[Aib]QILAQV-NH2 (SMILES CCCCC(=O)N[C@H](C(=O)N[C@@H](CC(C)C)C(=O)N[C@@H](CO)C(=O)N[C@@H](CC(C)C)C(=O)N[C@@H](CC(=O)O)C(=O)N[C@@H](C(=O)N1CCC[C@H]1C(=O)N[C@H](C(=O)N[C@@H](CCCCN)C(=O)N[C@@H](CC(C)C)C(=O)N[C@@H](CCCCNC(=O)COCCOCCNC(=O)COCCOCCNC(=O)CC[C@H](NC(=O)CCCCCCCCCCCCCCCCC(=O)O)C(=O)O)C(=O)N[C@@H](CCCCN)C(=O)N[C@H](C(=O)N[C@@H](CC(C)C)C(=O)N[C@@H](CC(C)C)C(=O)N[C@@H](CCC(=O)O)C(=O)N[C@@H](CCC(N)=O)C(=O)N[C@@H](CCC(=O)O)C(=O)N[C@@H](CCCCN)C(=O)N[C@@H](CCC(N)=O)C(=O)N[C@@H](CCCCN)C(=O)N[C@@H](CCCCN)C(=O)N[C@@H](CCC(N)=O)C(=O)N[C@@H](CCCNC(=N)N)C(=O)N[C@@H](CCC(=O)O)C(=O)N[C@@H](CCC(N)=O)C(=O)N[C@@H](C)C(=O)N[C@@H](CCC(=O)O)C(=O)N[C@H](C(=O)N[C@@H](CC(N)=O)C(=O)NC(C)(C)C(=O)N[C@@H](CCC(N)=O)C(=O)N[C@H](C(=O)N[C@@H](CC(C)C)C(=O)N[C@@H](C)C(=O)N[C@@H](CCC(N)=O)C(=O)N[C@H](C(N)=O)C(C)C)[C@@H](C)CC)[C@@H](C)O)[C@@H](C)CC)[C@@H](C)CC)C(C)C)C(C)C) [SEQ ID NO 201],5,1.37,–
Ac-IVLSLD[dV]PIKLK([AEEA-γGlu-C18 diacid])KILLEQEKQKKQREQAETN[Aib]QILAQV-NH2 (SMILES CC[C@H](C)[C@H](NC(C)=O)C(=O)N[C@H](C(=O)N[C@@H](CC(C)C)C(=O)N[C@@H](CO)C(=O)N[C@@H](CC(C)C)C(=O)N[C@@H](CC(=O)O)C(=O)N[C@@H](C(=O)N1CCC[C@H]1C(=O)N[C@H](C(=O)N[C@@H](CCCCN)C(=O)N[C@@H](CC(C)C)C(=O)N[C@@H](CCCCNC(=O)COCCOCCNC(=O)CC[C@H](NC(=O)CCCCCCCCCCCCCCCCC(=O)O)C(=O)O)C(=O)N[C@@H](CCCCN)C(=O)N[C@H](C(=O)N[C@@H](CC(C)C)C(=O)N[C@@H](CC(C)C)C(=O)N[C@@H](CCC(=O)O)C(=O)N[C@@H](CCC(N)=O)C(=O)N[C@@H](CCC(=O)O)C(=O)N[C@@H](CCCCN)C(=O)N[C@@H](CCC(N)=O)C(=O)N[C@@H](CCCCN)C(=O)N[C@@H](CCCCN)C(=O)N[C@@H](CCC(N)=O)C(=O)N[C@@H](CCCNC(=N)N)C(=O)N[C@@H](CCC(=O)O)C(=O)N[C@@H](CCC(N)=O)C(=O)N[C@@H](C)C(=O)N[C@@H](CCC(=O)O)C(=O)N[C@H](C(=O)N[C@@H](CC(N)=O)C(=O)NC(C)(C)C(=O)N[C@@H](CCC(N)=O)C(=O)N[C@H](C(=O)N[C@@H](CC(C)C)C(=O)N[C@@H](C)C(=O)N[C@@H](CCC(N)=O)C(=O)N[C@H](C(N)=O)C(C)C)[C@@H](C)CC)[C@@H](C)O)[C@@H](C)CC)[C@@H](C)CC)C(C)C)C(C)C) [SEQ ID NO 203],3,0.43,–
